Numbering of substitutions follows the chain as printed. Names may count otherwise. Values belong to the binder of their own block, whether it stands above or below them.
What was measured:
[1] = biological target: T1, hCD40-His (Human CD40 protein having a His-Tag, Beijing ACROBiosystems Co. Ltd., Cat #: CD0-H5228) (human, UniProt P25942 21-193); test: SPR, Biacore 8K, Protein A chip, CD40-His as analyte, 1:1 Langmuir fit
T1 construct: Bought protein; not shown: His tag
Procedure: (§1) Purified anti-CD40 antibodies at concentrations of 1 μg/ml with 1×HBS-EP+ buffer (PH 7.4) were then injected at 1 μl/min for 50 seconds. Dissociation was monitored for 400 seconds. The chip was regenerated after the last injection of each titration with a glycine solution (pH 2.0) at 30 μl/min for 30 seconds.

[2] = biological target: T2, fasCD40-His (Cynomolgus CD40/TNFRSF5 Protein, His Tag, Beijing ACRO Biosystems Co. Ltd., Cat #: CD0-C52H6) (Macaca fascicularis, UniProt G7PG38 21-193); test: as above
T2 construct: Bought protein; also called monkey (Macaca fascicularis) CD40; not shown: His tag
Procedure: as §1

[3] = biological target: T3, dCD40-His (CD40 Protein, Canine, Recombinant (His Tag), Sino Biological Inc., Cat #: 70105-D08H) (dog, UniProt Q7YRL5 21-194); test: as above
T3 construct: Bought protein; also called dog CD40; not shown: His tag
T3 sequence (looked up): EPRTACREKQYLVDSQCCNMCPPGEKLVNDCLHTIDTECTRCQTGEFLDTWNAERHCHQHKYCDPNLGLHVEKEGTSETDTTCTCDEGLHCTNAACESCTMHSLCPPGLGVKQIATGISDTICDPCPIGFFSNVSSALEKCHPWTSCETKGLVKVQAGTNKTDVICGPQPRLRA
Procedure: as §1

[4] = biological target: hFcRn-His (FCGRT&B2M Heterodimer Protein, His Tag&Strep II Tag, Beijing ACROBiosystems Co. Ltd., Cat #: FCM-H5286) (human) (UniProt P61769); test: SPR, Biacore 8K or T200, Protein A chip, steady state affinity model, pH 6.0; pH 6.0

T1 sequence (P25942 21-193 limits assumed): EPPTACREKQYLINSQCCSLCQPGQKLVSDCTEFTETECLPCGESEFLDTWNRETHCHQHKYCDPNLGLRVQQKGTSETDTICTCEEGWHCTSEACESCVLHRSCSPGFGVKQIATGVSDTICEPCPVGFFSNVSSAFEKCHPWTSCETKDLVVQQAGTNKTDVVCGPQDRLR

B3: 6A4-IgG4-FLAA (antibody, V domains shown)
VH: QVQLVQSGGGLVQPGGSLRLSCAASGFTFSNYVMSWVRQAPGKGLEWVSTIRGSGISTYYTDSVKGRFTTSRDNPKNTLFLQMSSLRAEDTAVYYCAKGIVGATTPFDYWGQGTLVTVSS
VL: EIVLTQSPATLSLSPGERATLSCRASQSVRSFLAWYQQKPGQAPRLLIYETSNRATGIPARFSGSGSGTDFTLTISSLEPEDFAVYYCQQRSDWPPTFGQGTKVEIKR
notes: Rest: human IgG4 constant regions with FLAA mutations (F234A and L235A, EU numbering)
Kd [1]: 1.66 nM
koff [1]: 0.000511 s⁻¹
kon [1]: 309000 M⁻¹ s⁻¹
Kd [2]: 51.7 nM
koff [2]: 0.0149 s⁻¹
kon [2]: 288000 M⁻¹ s⁻¹

B4: Bleselumab analog (antibody, human IgG4, V domains shown)
VH: QLQLQESGPGLLKPSETLSLTCTVSGGSISSPGYYGGWIRQPPGKGLEWIGSIYKSGSTYHNPSLKSRVTISVDTSKNQFSLKLSSVTAADTAVYYCTRPVVRYFGWFDPWGQGTLVTVSS
VL: AIQLTQSPSSLSASVGDRVTITCRASQGISSALAWYQQKPGKAPKLLIYDASNLESGVPSRFSGSGSGTDFTLTISSLQPEDFATYYCQQFNSYPTFGQGTKVEIKR
Kd [1]: 1.59 nM
koff [1]: 0.000682 s⁻¹
kon [1]: 429000 M⁻¹ s⁻¹
Kd [2]: 3.35 nM
koff [2]: 0.000907 s⁻¹
kon [2]: 270000 M⁻¹ s⁻¹

Stronger by Kd [1], values ahead:

Kd [1]: 0.735 nM
koff [1]: 0.000389 s⁻¹
kon [1]: 529000 M⁻¹ s⁻¹
Kd [2]: 0.495 nM
koff [2]: 0.000265 s⁻¹
kon [2]: 535000 M⁻¹ s⁻¹
Kd [3]: 32.1 nM
koff [3]: 0.0129 s⁻¹
kon [3]: 401000 M⁻¹ s⁻¹
Kd [4]: 497 nM
B2: 12B5-IgG4-FLAA (antibody, V domains shown)
VH: QVQLVQSGPGLVKPSETLSLTCTVSGGSISYYYWSWIRQPPGKGLEWIGHISYSGSTNYNPSLKSRVTISEDTSKKQFSLKLDSVTAADTAVYYCAGGIVGARRGFDFWGQGTLVTVSS
VL: B3 VL with L4M, R30S, S31N, F32N, E50D, T51A, T56A, G57D, S92N, D93N
notes: Rest: human IgG4 constant regions with FLAA mutations (F234A and L235A, EU numbering); copies: 2 + 2

Kd [1]: 0.351 nM
koff [1]: 0.000229 s⁻¹
kon [1]: 654000 M⁻¹ s⁻¹
Kd [2]: 0.301 nM
koff [2]: 0.000297 s⁻¹
kon [2]: 989000 M⁻¹ s⁻¹
Kd [3]: 5.18 nM
koff [3]: 0.00266 s⁻¹
kon [3]: 513000 M⁻¹ s⁻¹
B1: 2F8-IgG4-FLAA (antibody, V domains shown)
VH: EVQLVQSGGGVVQPGRSLRLSCAASGFSFSSYAMHWVRQVPGKGLEWVSVISYDGDNKYHAESVKGRFTISRDNSKNILYLQMNSLRPEDTAVYYCARRGTVTNYYSYSGLDVWGQGTTVTVSS
VL: DIQLTQSPLSLPVTPGEPASISCRSSQSLLYSNGKNYLDWYLQKPGQSPQLLIYLASNRASGVPDRFSGSGSGTDFTLKISRVEAEDVGVYFCMQALQTPRTFGQGTKVEIKR
notes: as for B3

From patent US20260250403A1 (BIOCYTOGEN PHARMACEUTICALS BEIJING, published 2026)
